Assay results reported in doi:10.1101/467431 (bioRxiv, 2018).
Read-outs that look alike come from different tables or passages of the source.

Assays:
Test in all cases: ITC
[1] = target: T1, Sca2 C-terminal fragment, construct Sca_(868-1515) (Rickettsia conorii, UniProt Q92JF7 868-1515)
T1 sequence: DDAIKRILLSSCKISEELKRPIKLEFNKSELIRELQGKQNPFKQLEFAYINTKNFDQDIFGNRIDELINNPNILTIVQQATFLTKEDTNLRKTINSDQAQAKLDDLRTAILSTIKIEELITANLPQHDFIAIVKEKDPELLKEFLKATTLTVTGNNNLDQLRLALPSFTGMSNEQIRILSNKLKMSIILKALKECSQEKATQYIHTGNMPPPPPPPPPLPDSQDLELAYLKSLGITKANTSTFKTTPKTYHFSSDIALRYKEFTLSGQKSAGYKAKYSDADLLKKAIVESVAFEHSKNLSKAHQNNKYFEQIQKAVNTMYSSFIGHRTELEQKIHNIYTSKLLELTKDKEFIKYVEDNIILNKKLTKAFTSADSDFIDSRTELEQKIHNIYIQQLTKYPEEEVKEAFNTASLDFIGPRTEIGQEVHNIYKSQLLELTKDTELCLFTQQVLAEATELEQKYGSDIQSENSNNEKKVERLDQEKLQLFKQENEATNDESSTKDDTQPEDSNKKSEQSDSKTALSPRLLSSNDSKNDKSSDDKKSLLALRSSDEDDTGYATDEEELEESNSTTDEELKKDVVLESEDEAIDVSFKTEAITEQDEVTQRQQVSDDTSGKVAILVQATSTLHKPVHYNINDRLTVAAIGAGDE

[2] = target: T2, monomeric actin (LatB-actin) (UniProt P68135 1-377)
[3] = target: T2, monomeric actin (LatB-actin); remark: listed apart in the source

B1: Sca2 N-terminal fragment, construct Sca_(34-670) (domain or fragment)
chain: ASFKDLVSKTPAWEKHNSTQQQNIWKDLTPNEKIKKWQEAALVPSFTQAQNDLGIKYKETDLSSFLDNTRHKARQARAEILLYIERVKQQDFDTKKQAYINQGVVPTDIEAATNLGISYDPSKIDNNVEHDQKVRRAEKDKKAVIELYVSSINRGIKYKHYVDNDIIPEIQEVRTALNMNKDDAQSFVASIRTEIMENAKGQYIADSHIPTEKELKKKFGISRDDNRDGYIKSIRLKVMDKEKPQYIADSHIPTEKELEQKFGADKGEATNYIASIATQMMLDKKSYYIDNNIIPNADELMNEFKIGPVKATSYINQIRAGIEANQFLNNNDTTKPSTGRSQKKSGSKNDHWYMSNQSINNTGTSARIVTGREKKQRYFFDPISTFKTYFNTKASKGNLTQSQHNINRIIQQEENIEEFKNLIKTDPIAALTLQVDSSYKQEAVTTILSDFNDDTIQRVLFSNDKGKLDFNTNIDVKNRPILQELLENSSSEEKTKFAERIQDYATRNISNSQFEEKARLDLIKLAASKDKSSVENFLTLQLELKNRMQPYVVNSVYILTPEIVKEINIELKNKGLIRDSLTKDYMIKLAKEVNNHTLNSVIKVILSDSKILSNETNKILGLAVSNNANNLEQTQSG
B1 was tested, and the Kd [1] was 7 µM and the “stoichiometry N” value [2] was 2 actin subunits per Sca_(34-670).

B2: Sca2 construct Sca_(869-1060) (domain or fragment)
chain: DAIKRILLSSCKISEELKRPIKLEFNKSELIRELQGKQNPFKQLEFAYINTKNFDQDIFGNRIDELINNPNILTIVQQATFLTKEDTNLRKTINSDQAQAKLDDLRTAILSTIKIEELITANLPQHDFIAIVKEKDPELLKEFLKATTLTVTGNNNLDQLRLALPSFTGMSNEQIRILSNKLKMSIILKALK
In the case of B2, the Kd [3] is reported as 10.8 µM and the “stoichiometry N” value [3] is reported as 1 LatB-actin monomer per Sca_(869-1060).

B3: MBP fusion of the WH2 domain of WAVE1 (WAVE1 WH2a) (domain or fragment)
chain: AAANNNNNNNNNNLGARSVLLEAIRKGIQLRKV
B3 was tested, and the Kd [2] was 0.38 µM and the “stoichiometry N” value [2] was 1.07.
